Laboratory results reported in patent publication US20250152729A1.
Read-outs that look alike come from different tables or passages of the source.

Legend:
[1] = target: BCMA (TNFRSF17) on NCI-H929 cells (UniProt Q02223); test: cell-based or functional assay
[2] = target: BCMA (TNFRSF17) on NCI-H929 cells (UniProt Q02223); test: cell-based or functional assay; remark: listed apart in the source

BCMA (TNFRSF17) on NCI-H929 cells, sequence (Q02223 whole entry): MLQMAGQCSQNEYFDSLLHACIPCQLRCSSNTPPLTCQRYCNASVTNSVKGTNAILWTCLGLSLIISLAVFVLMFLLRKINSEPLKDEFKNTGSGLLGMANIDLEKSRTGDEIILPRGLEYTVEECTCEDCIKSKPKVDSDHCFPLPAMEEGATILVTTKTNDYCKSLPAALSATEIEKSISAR

- EC50 (nM), Fab-pHast internalisation into NCI-H929 [1]: 11 nM
- Fold-Change at 6 hours (10 nM), Fab-pHast internalisation [1]: 37 fold
Substance: J6M0 anti-BCMA human Alya IgG1 conjugated to McMMAF (antibody)
- Average NCI-H929 IC50 [pM], cell kill [1]: 74.5 pM
- Average NCI-H929 IC50 [pM], cell kill [2]: 110 pM
